B1: KRT71 (parent)
chain: ELRNVQDVVEDYKKRYEEEINKRT

Variants of: B1
Assay: protein stability index of a GFP-peptide fusion (GPS, HEK-293T) (PSI 1-6); higher = more stable
Details: c terminus: a fixed tail appended
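Further: lentivirally expressed fusions sorted by FACS into six bins by GFP to DsRed ratio, PSI derived from sequencing read proportions per bin multiplied by bin number.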

Variant | protein stability index
ELRNVQDVVEDYKKRYEEERNKRT | 3.22
ELRNVQDVVEDYKKRYEEESNKRT | 4.25
ELRNVQDVVEDYKKRYEEEMNKRT | 4.12
ELRNVQDVVEDYKKRYEEELNKRT | 4.32
ELRNVQDVVEDYKKRYEEEWNKRT | 3.2
ELRNVQDVVEDYKKRYEEEVNKRT | 4.2
ELRNVQDVVEDYKKRYEEECNKRT | 4.07
ELRNVQDVVEDYKKRYEEETNKRT | 3.65
ELRNVQDVVEDYKKRYEEENNKRT | 4
ELRNVQDVVEDYKKRYEEEENKRT | 3.6
ELRNVQDVVEDYKKRYEEEYNKRT | 3.15
ELRNVQDVVEDYKKRYEEEHNKRT | 4.07
ELRNVQDVVEDYKKRYEEEANKRT | 4.88
ELRNVQDVVEDYKKRYEEEGNKRT | 4.05
ELRNVQDVVEDYKKRYEEEQNKRT | 3.74
ELRNVQDVVEDYKKRYEEEPNKRT | 3.71
ELRNVQDVVQDYKKRYEEEINKRT | 3.13
ELRNVQDVVNDYKKRYEEEINKRT | 4.22
ELRNVQDVVTDYKKRYEEEINKRT | 4.45
ELRNVQDVVSDYKKRYEEEINKRT | 3.65
ELRNVQDVVKDYKKRYEEEINKRT | 3.14
ELRNVQDVVRDYKKRYEEEINKRT | 4
ELRNVQDVVYDYKKRYEEEINKRT | 3.26
ELRNVQDVVWDYKKRYEEEINKRT | 2.43

Variant | protein stability index
ELRNVQDVVVDYKKRYEEEINKRT | 3.11
ELRNVQDVVMDYKKRYEEEINKRT | 3.57
ELRNVQDVVPDYKKRYEEEINKRT | 3.41
ELRNVQDVVEDYKKRYFEEINKRT | 3.93
ELRNVQDVVEDYKKRYKEEINKRT | 3.24
ELRNVQDVVEDYKKRYSEEINKRT | 3.86
ELRNVQDVVEDYKKRYREEINKRT | 4.12
ELRNVQDVVEDYKKRYAEEINKRT | 2.84
ELRNVQDVVEDYKKRYIEEINKRT | 3.57
ELRNVQDVVEDYKKRYMEEINKRT | 3.02
ELRNVQDVVEDYKKRYGEEINKRT | 3.1
ELRNVQDVVEDYKKRYNEEINKRT | 4.29
ELRNVQDVVEDYKKRYDEEINKRT | 3.23
ELRNVQDVVEDYKKRYVEEINKRT | 3.93
ELRNVQDVVEDYKKRYCEEINKRT | 3.24
ELRNVQDVVEDYKKRYYEEINKRT | 3.15
ELRNVQDVVEDYKKRYLEEINKRT | 4.43
ELRNVQDVVEDYKKRYTEEINKRT | 3.45
ELRNVQDVVEDYKKRYWEEINKRT | 3.87
ELRNVQDVVEDYKKRYQEEINKRT | 3.8
ELRNVQDVVEQYKKRYEEEINKRT | 4.23
ELRNVQDVVEFYKKRYEEEINKRT | 3.01
ELRNVQDVVETYKKRYEEEINKRT | 3.63
ELRNVQDVVEKYKKRYEEEINKRT | 2.82

Variant | protein stability index
ELRNVQDVVECYKKRYEEEINKRT | 3.98
ELRNVQDVVEPYKKRYEEEINKRT | 3.44
ELRNVQDVVEHYKKRYEEEINKRT | 3.77
ELRNVQDVVESYKKRYEEEINKRT | 3.69
ELRNVQDVVERYKKRYEEEINKRT | 3.29
ELRNVQDVVEEYKKRYEEEINKRT | 3.5
ELRNVQDVVEIYKKRYEEEINKRT | 2.82
ELRNVQDVVELYKKRYEEEINKRT | 3.95
ELRNVQDVVENYKKRYEEEINKRT | 3.63
ELRNVQDVVEAYKKRYEEEINKRT | 3.55
ELRNVQDVVEMYKKRYEEEINKRT | 3.31
ELRNVQDVVEDYKKHYEEEINKRT | 2.8
ELRNVQDVVEDYKKWYEEEINKRT | 3.67
ELRNVQDVVEDYKKCYEEEINKRT | 4.23
ELRNVQDVVEDYKKEYEEEINKRT | 3.49
ELRNVQDVVEDYKKAYEEEINKRT | 4.63
ELRNVQDVVEDYKKVYEEEINKRT | 3.05
ELRNVQDVVEDYKKTYEEEINKRT | 4.68
ELRNVQDVVEDYKKQYEEEINKRT | 4.26
ELRNVQDVVEDYKKFYEEEINKRT | 3.67
ELRNVQDVVEDYKKNYEEEINKRT | 3.48
ELRNVQDVVEDYKKIYEEEINKRT | 4.28
ELRNVQDVVEDYKKMYEEEINKRT | 4.38
ELRNVQDVVEDYKKLYEEEINKRT | 4.86

Variant | protein stability index
ELRNVQDVVEDYKKSYEEEINKRT | 3.63
ELRNVQDVVEDYKKYYEEEINKRT | 3.43
ELRNVQDVVEDYKKDYEEEINKRT | 3.35
ELRNVQDVVEDYKKKYEEEINKRT | 3.22
ELRNVQDVVEDYKKPYEEEINKRT | 4.78
ELRNVQDVVEDYKHRYEEEINKRT | 4.26
ELRNVQDVVEDYKTRYEEEINKRT | 3.65
ELRNVQDVVEDYKARYEEEINKRT | 3.17
ELRNVQDVVEDYKNRYEEEINKRT | 3.58
ELRNVQDVVEDYKRRYEEEINKRT | 3.51
ELRNVQDVVEDYKYRYEEEINKRT | 3.47
ELRNVQDVVEDYKERYEEEINKRT | 4.51
ELRNVQDVVEDYKVRYEEEINKRT | 4.45
ELRNVQDVVEDYKCRYEEEINKRT | 3.3
ELRNVQDVVEDYKQRYEEEINKRT | 3.49
ELRNVQDVVEDYKGRYEEEINKRT | 4.76
ELRNVQDVVEDYKLRYEEEINKRT | 2.97
ELRNVQDVVEDYKMRYEEEINKRT | 3.82
ELRNVQDVVEDYKKRYEEEIIKRT | 1.94
ELRNVQDVVEDYKKRYEEEILKRT | 3.83
ELRNVQDVVEDYKKRYEEEIHKRT | 4.26
ELRNVQDVVEDYKKRYEEEIKKRT | 4.54
ELRNVQDVVEDYKKRYEEEISKRT | 4.27
ELRNVQDVVEDYKKRYEEEICKRT | 3.73

Variant | protein stability index
ELRNVQDVVEDYKKRYEEEIAKRT | 4.15
ELRNVQDVVEDYKKRYEEEIFKRT | 3.55
ELRNVQDVVEDYKKRYEEEITKRT | 2.89
ELRNVQDVVEDYKKRYEEEIGKRT | 3.77
ELRNVQDVVEDYKKRYEEEIMKRT | 2.79
ELRNVQDVVEDYKKRYEEEIQKRT | 3.51
ELRNVQDVVEDYKKRYEEEIDKRT | 3.8
ELRNVQDVVEDYKKRYEEEIRKRT | 3.92
ELRNVQDVVEDYKKRYETEINKRT | 3.93
ELRNVQDVVEDYKKRYEWEINKRT | 3.11
ELRNVQDVVEDYKKRYEAEINKRT | 3.54
ELRNVQDVVEDYKKRYEPEINKRT | 3.98
ELRNVQDVVEDYKKRYENEINKRT | 3.31
ELRNVQDVVEDYKKRYEIEINKRT | 3.07
ELRNVQDVVEDYKKRYEKEINKRT | 3.03
ELRNVQDVVEDYKKRYEDEINKRT | 3.48
ELRNVQDVVEDYKKRYELEINKRT | 2.91
ELRNVQDVVEDYKKRYESEINKRT | 3.23
ELRNVQDVVEDYKKRYEREINKRT | 4.26
ELRNVQDVVEDYKKRYEGEINKRT | 3.16
ELRNVQDVVEDYKKRYECEINKRT | 4.57
ELRNVQDVVEDYKKRYEQEINKRT | 3.3
ELRNVQDVVEDYKKRYEYEINKRT | 3.85
ELRNVQDVVEDYKKRYEFEINKRT | 3.42

Variant | protein stability index
ELRNVQDVVEDVKKRYEEEINKRT | 4.23
ELRNVQDVVEDIKKRYEEEINKRT | 3.13
ELRNVQDVVEDRKKRYEEEINKRT | 3.66
ELRNVQDVVEDTKKRYEEEINKRT | 4.05
ELRNVQDVVEDSKKRYEEEINKRT | 4.26
ELRNVQDVVEDCKKRYEEEINKRT | 4.07
ELRNVQDVVEDLKKRYEEEINKRT | 3.22
ELRNVQDVVEDFKKRYEEEINKRT | 3.85
ELRNVQDVVEDEKKRYEEEINKRT | 2.66
ELRNVQDVVEDKKKRYEEEINKRT | 3.08
ELRNVQDVVEDMKKRYEEEINKRT | 4.56
ELRNVQDVVEDPKKRYEEEINKRT | 3.53
ELRNVQDVVEDWKKRYEEEINKRT | 3.98
ELRNVQDVVEDDKKRYEEEINKRT | 4.2
ELRNVQDVVEDNKKRYEEEINKRT | 4.89
ELRNVQDVVEDQKKRYEEEINKRT | 4.12
ELRNVQDVVEDHKKRYEEEINKRT | 4.09
ELRNVQDVVEDYKKRYEEHINKRT | 3.73
ELRNVQDVVEDYKKRYEEGINKRT | 3.65
ELRNVQDVVEDYKKRYEECINKRT | 3.9
ELRNVQDVVEDYKKRYEEYINKRT | 2.88
ELRNVQDVVEDYKKRYEEMINKRT | 2.73
ELRNVQDVVEDYKKRYEEVINKRT | 3.48
ELRNVQDVVEDYKKRYEEIINKRT | 3.39

Variant | protein stability index
ELRNVQDVVEDYKKRYEEFINKRT | 3.36
ELRNVQDVVEDYKKRYEEDINKRT | 3.24
ELRNVQDVVEDYKKRYEEPINKRT | 4.28
ELRNVQDVVEDYKKRYEENINKRT | 2.71
ELRNVQDVVEDYKKRYEEQINKRT | 2.54
ELRNVQDVVEDYKKRYEESINKRT | 3.69
ELRNVQDVVEDYKKRYEERINKRT | 4.11
ELRNVQDVVEDYKKRYEEWINKRT | 2.92
ELRNVQDVVEDYKKRYEEAINKRT | 3.94
ELRNVQDVVEDYKKRYEETINKRT | 4.16
ELRNVQDVVEDYKKRYEEKINKRT | 3.21
ELRNVQDVVEDYKKRLEEEINKRT | 4.31
ELRNVQDVVEDYKKRPEEEINKRT | 3.82
ELRNVQDVVEDYKKRKEEEINKRT | 3.75
ELRNVQDVVEDYKKRQEEEINKRT | 3.52
ELRNVQDVVEDYKKRWEEEINKRT | 2.68
ELRNVQDVVEDYKKRREEEINKRT | 3.59
ELRNVQDVVEDYKKREEEEINKRT | 4.33
ELRNVQDVVEDYKKRDEEEINKRT | 4.38
ELRNVQDVVEDYKKRMEEEINKRT | 4.22
ELRNVQDVVEDYKKRNEEEINKRT | 4.1
ELRNVQDVVEDYKKRCEEEINKRT | 3.51
ELRNVQDVVEDYKKRTEEEINKRT | 3.89
ELRNVQDVVEDYKKRHEEEINKRT | 3.75

Variant | protein stability index
ELRNVQDVVEDYKKRVEEEINKRT | 3.76
ELRNVQDVVEDYKKRAEEEINKRT | 4.43
ELRNVQDVVEDYKKRGEEEINKRT | 2.71
ELRNVQDVVEDYKKRFEEEINKRT | 2.96
ELRNVQDVVEDYYKRYEEEINKRT | 3.2
ELRNVQDVVEDYIKRYEEEINKRT | 3.27
ELRNVQDVVEDYPKRYEEEINKRT | 2.97
ELRNVQDVVEDYGKRYEEEINKRT | 3.93
ELRNVQDVVEDYMKRYEEEINKRT | 3.12
ELRNVQDVVEDYVKRYEEEINKRT | 3.25
ELRNVQDVVEDYQKRYEEEINKRT | 3.71
ELRNVQDVVEDYHKRYEEEINKRT | 3.73
ELRNVQDVVEDYEKRYEEEINKRT | 4.74
ELRNVQDVVEDYFKRYEEEINKRT | 4.07
ELRNVQDVVEDYWKRYEEEINKRT | 3.34
ELRNVQDVVEDYCKRYEEEINKRT | 2.71
ELRNVQDVVEDYRKRYEEEINKRT | 4.62
ELRNVQDVVEDYAKRYEEEINKRT | 4.07
ELRNVQDVVEDYNKRYEEEINKRT | 3.34
ELRNVQDVVEDYSKRYEEEINKRT | 3.51

— the supplement of paper PMC10567573
